Tests used:
Experiment in all cases: competition; excess ssDNA oligo titrates gp32 off probe
Conditions in all cases: tags: C-terminal His6
gp32 (Rb69) = molecular target: T1, gp32 (Rb69) (Enterobacteria phage RB69)
T1 chain: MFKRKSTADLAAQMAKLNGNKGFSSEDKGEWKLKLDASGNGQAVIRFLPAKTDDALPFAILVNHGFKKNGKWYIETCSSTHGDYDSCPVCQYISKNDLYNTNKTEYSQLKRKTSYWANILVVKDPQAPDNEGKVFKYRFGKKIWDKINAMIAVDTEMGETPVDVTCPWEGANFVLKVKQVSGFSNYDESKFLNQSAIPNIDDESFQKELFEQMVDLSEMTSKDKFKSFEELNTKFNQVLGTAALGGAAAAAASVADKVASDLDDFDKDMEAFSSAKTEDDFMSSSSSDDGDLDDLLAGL
Description: (§1) In this experiment, the effects of these challenges on Rb69 gp32, T4 gp32 and Aeh1 gp32 were compared.
(§2) An experiment was performed to assess whether gp32 molecules from different species of origin were biochemically distinct from one another. Experimental conditions were as follows: reactions were performed in 50 ul volume; final concentration of probe (SA-Tamra2; 5′-tgttaattgagcaagtgtatagagcattraygabtatgcgtggag-3′ (SEQ ID NO:126), here y=thf, b=BHQ2-dT, r=TAMRA-dT, 3′=Bio-TEG) was 100 nM; Rb69 pg32 was used at final concentration of 80 ng/μl, Nfo was present at 33 ng/μl; after 350 sec either water, dsDNA (550 ng human genomic DNA; i.e. approximately 10× mass of oligonucleotide probe) or ssDNA ([…] oligonucleotide of sequence 5′[…]-3′ (SEQ ID NO:127)) was added; buffer conditions were 20 mM Tris-acetate, 50 mM potassium acetate (pH 7.9), 10 mM Magnesium Acetate, 1 mM Dithiothreitol. Measurements were made in a fluorometer manufactured by Embedded System Engineering (ESE, GmbH) with LED excitation of 520 nm and emission at 585 nm.
(§3) Initially, a concentration of gp32 was established which permitted only a very low cutting activity by Nfo nuclease on the fluorophore/quencher probe. At this concentration the availability of gp32 was limited to a minimal quantity for substantial probe protection, and under these conditions it was possible to assess very sensitively whether gp32 was partitioned away from the probe in competition experiments. After monitoring the slow probe cutting for a while, excess double-stranded DNA or single-stranded oligonucleotides were added to assess whether this affected the distribution of gp32 on the probe. […] Clearly Rb69 and Aeh1 gp32 molecules differentiated and partitioned much more effectively in favour of single-stranded DNA than T4 gp32.

gp32 (T4) = molecular target: T2, gp32 (T4) (Enterobacteria phage T4, UniProt P03695 SEQ:1-301)
T2 sequence: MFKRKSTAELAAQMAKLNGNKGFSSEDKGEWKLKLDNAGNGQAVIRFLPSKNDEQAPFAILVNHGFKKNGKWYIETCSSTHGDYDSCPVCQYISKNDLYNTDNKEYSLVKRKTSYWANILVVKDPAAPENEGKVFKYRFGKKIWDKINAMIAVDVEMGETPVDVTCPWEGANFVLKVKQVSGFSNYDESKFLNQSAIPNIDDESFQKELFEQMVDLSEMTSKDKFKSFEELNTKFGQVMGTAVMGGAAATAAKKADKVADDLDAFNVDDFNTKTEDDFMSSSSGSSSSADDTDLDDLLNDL
Description: as §1, §2, §3

gp32 (Aeh1) = molecular target: T3, gp32 (Aeh1) (Aeromonas phage Aeh1)
T3 chain: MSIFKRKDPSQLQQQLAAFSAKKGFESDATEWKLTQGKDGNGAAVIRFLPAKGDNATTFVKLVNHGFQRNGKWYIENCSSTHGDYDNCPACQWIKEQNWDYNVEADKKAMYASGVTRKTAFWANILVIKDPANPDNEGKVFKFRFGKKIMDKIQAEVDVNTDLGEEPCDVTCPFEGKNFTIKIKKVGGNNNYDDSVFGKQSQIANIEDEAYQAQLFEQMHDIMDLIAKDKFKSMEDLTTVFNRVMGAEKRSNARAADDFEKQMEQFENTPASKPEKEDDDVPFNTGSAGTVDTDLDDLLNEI
Description: as §1, §2, §3

Measured: binding result

CTGTATTAGAAGTACATGCTGATCAAGTGACA (ssDNA) [competitor oligonucleotide]
binds: gp32 (Rb69) | gp32 (T4) | gp32 (Aeh1)
